Article PMC5847313
Read-outs that look alike come from different tables or passages of the source.

Experiments:
[1] = target: P (Human respiratory syncytial virus) (UniProt P03421); assay: ITC; conditions: cited from earlier work
[2] = target: P (Human respiratory syncytial virus) (UniProt P03421); conditions: cited from earlier work
[3] = target: RSV P D110A (untagged, from pP) (human respiratory syncytial virus, strain Long) (UniProt P12579)
[4] = target: RSV P D95A (untagged, from pP) (human respiratory syncytial virus, strain Long) (UniProt P12579)

Substance	Kd [1] [µM]	Kd [2] [µM]	minigenome activity (firefly luciferase, pM/Luc) in BSRT7/5 cells [3] [% decrease]	minigenome activity (firefly luciferase, pM/Luc) in BSRT7/5 cells [4] [% decrease]
M2-1 (from UniProt P04545)	3	0.0081	–	–
RSV M2-1 expressed in BSRT7/5 cells, unphosphorylated form (from UniProt P04545 1-194) (natural protein)	–	–	50	50
